The values that follow come from patent US20250289899A1 (Genmab, published 2025).

The target in assay [1] is T1, human CD27, full length, on cells (T cells, transfected HEK293F cells, Daudi cells, NFκB-luc2/CD27 Jurkat … (human, UniProt P26842 20-240)).
T1 construct: Residues 1-19 are stated to be the signal peptide; also called TNFRSF7
T1 sequence: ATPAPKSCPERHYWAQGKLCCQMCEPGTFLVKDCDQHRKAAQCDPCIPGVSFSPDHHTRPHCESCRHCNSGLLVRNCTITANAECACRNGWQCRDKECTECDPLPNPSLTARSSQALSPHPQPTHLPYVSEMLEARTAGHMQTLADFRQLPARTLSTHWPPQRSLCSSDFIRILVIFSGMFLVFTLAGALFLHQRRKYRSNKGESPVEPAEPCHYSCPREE
Kind of assay: flow cytometry on T cells in human PBMC (endogenous CD27), PE goat anti-human IgG, median MFI PE. The procedure: (§1) Non-binding control antibody IgG1-b12-FEAR was used as negative control antibody. *N.B. IgG1-CD27-A, -B, -C, -D and -E carried mutations F405L-L234F-L235E-D265A in the IgG Fc domain, which are functionally irrelevant in the context of this experiment.
(§2) Cells were seeded in 96-Wells plates (100,000 cells per well; Greiner Bio-one, Cat #650180) for sequential incubations, with washing steps in between with FACS buffer, consisting of PBS (Lonza, Cat #BE17-517Q)+1% BSA (Roche, Cat #10735086001)+0.02% Sodium Azide (Bio-World, Cat #41920044-3). The following incubations were applied: antibody concentration series (0.0001-10 μg/mL final concentration) for 30 min at 4° C.; live/dead marker FVS510 (BD, Cat #564406, diluted 1:1,000 in PBS) for 20 min at RT; PE-labeled polyclonal goat anti-human IgG (Jackson Immuno Research, Cat #109-116-098, diluted 1:500) for 30 min at 4° C.; and anti-CD3 antibody for T-cell identification (anti-human CD3: BD, Cat #555335, diluted 1:10; anti-cyno CD3: Miltenyi, Cat #130-091-998, diluted 1:10) for 30 min at 4° C. All samples were analyzed on a FACSCelesta flow cytometer (BD) and FlowJo software. Data were processed and visualized using GraphPad Prism.
On the technique in general: In flow cytometry, cells or beads pass a laser one at a time.

Assay [2] addresses T1, human CD27, full length, on cells (T …). Kind of assay: flow cytometry on HEK293F cells transfected with human CD27, PE goat anti-human IgG, median MFI PE.
The target in assay [3] is T2, cynomolgus monkey CD27, full length, on cells (cynomolgus T cells, transfected HEK293F cells) (cynomolgus monkey (Macaca fascicularis), UniProt P26842 20-260 (human entry)).
T2 construct: also called cyno CD27
T2 chain: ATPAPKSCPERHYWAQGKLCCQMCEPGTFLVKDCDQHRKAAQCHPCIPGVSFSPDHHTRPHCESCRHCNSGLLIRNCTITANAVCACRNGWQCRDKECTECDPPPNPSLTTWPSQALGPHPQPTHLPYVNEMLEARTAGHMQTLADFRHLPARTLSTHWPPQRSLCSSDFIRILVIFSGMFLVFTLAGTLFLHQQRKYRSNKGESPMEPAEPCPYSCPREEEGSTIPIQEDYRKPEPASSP
Kind of assay: flow cytometry on T cells in cynomolgus PBMC (endogenous CD27), PE goat anti-human IgG, median MFI PE. The procedure:
as §1, §2

In assay [4] the target is T2, cynomolgus monkey CD27, full length, on …. Kind of assay: flow cytometry on HEK293F cells transfected with cynomolgus CD27, PE goat anti-human IgG, median MFI PE. The procedure:
as §1, §2

Assay [5] has as its target T3, human C1q (from normal human serum) (human, UniProt P02745 23-245; P02746 28-253; P02747 29-245).
T3 construct: 20% normal human serum was the source of C1q
Kind of assay: flow cytometry, C1q (20% normal human serum) on human T cells pre-incubated with the antibody, FITC rabbit anti-human C1q, median MFI FITC; antibody concentration varied. The procedure: The P329R mutation was previously described to reduce interaction of IgG1 antibodies with C1q and FcgR (Overdijk et al, Molecular Cancer Therapeutics 2020). The effect of the P329R mutation on C1q binding of IgG1-CD27-A comprising the E345R mutation was tested in cellular C1q binding assays in vitro using human healthy donor T cells. Anti-HIV gp120 antibody IgG1-b12-F405L was used as non-binding isotype control antibody (ctrl). […] T cells (2×10⁶ cells/well) were pre-incubated in polystyrene 96-well round-bottom plates with antibody dilution series (8× five-fold dilution starting at 15 μg/mL final assay concentration) for 15 min at 37° C. to allow the antibodies to bind to the T cells. Then, cells were cooled on ice, supplemented with NHS as a source of human C1q (20% NHS final assay concentration) and incubated on ice for 45 min. Cells were subsequently incubated on ice with FITC-labeled Rabbit anti-human C1q antibody (DAKO, Cat #F0254; 20 μg/mL) for 30 min and resuspended in FACS buffer with TO-PRO-3 (ThermoFisher, Cat #T3605; 1:5,000 dilution). C1q binding was determined by flow cytometry measuring the FITC signal on live cells.

T3 sequence (P02745 23-245 limits assumed, chain 1 of 3): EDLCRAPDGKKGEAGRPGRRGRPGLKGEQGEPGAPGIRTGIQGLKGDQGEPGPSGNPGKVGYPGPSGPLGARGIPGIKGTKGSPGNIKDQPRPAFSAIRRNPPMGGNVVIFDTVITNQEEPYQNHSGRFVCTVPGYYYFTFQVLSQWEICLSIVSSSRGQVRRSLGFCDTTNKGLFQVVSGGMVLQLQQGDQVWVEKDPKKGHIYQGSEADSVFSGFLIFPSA
T3 sequence (P02746 28-253 limits assumed, chain 2 of 3): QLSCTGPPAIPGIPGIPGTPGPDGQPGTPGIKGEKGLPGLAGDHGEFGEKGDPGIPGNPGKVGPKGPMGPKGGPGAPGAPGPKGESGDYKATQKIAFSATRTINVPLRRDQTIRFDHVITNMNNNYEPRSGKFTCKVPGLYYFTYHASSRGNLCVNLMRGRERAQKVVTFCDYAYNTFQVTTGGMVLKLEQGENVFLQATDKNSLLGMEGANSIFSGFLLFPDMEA
T3 sequence (P02747 29-245 limits assumed, chain 3 of 3): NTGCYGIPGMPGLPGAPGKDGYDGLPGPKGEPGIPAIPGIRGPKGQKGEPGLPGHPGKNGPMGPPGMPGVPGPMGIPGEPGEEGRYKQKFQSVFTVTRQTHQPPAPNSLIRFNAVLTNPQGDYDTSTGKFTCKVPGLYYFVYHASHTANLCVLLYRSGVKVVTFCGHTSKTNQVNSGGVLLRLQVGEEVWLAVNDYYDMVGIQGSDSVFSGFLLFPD

B1: IgG1-CD27-A carrying F405L-L234F-L235E-D265A in the IgG Fc domain (antibody)
heavy: QVQLMQSGSELKKPGASVKVSCRASGYTFTTYAMNWVRQAPGQGPEWMGWINTNTGNPTYAQGFTGRFVFSLDTTVTTTYLQISSLKAEDTAVYFCAREAGSFDYWGQGTLVTVSSASTKGPSVFPLAPSSKSTSGGTAALGCLVKDYFPEPVTVSWNSGALTSGVHTFPAVLQSSGLYSLSSVVTVPSSSLGTQTYICNVNHKPSNTKVDKRVEPKSCDKTHTCPPCPAPEFEGGPSVFLFPPKPKDTLMISRTPEVTCVVVAVSHEDPEVKFNWYVDGVEVHNAKTKPREEQYNSTYRVVSVLTVLHQDWLNGKEYKCKVSNKALPAPIEKTISKAKGQPREPQVYTLPPSREEMTKNQVSLTCLVKGFYPSDIAVEWESNGQPENNYKTTPPVLDSDGSFLLYSKLTVDKSRWQQGNVFSCSVMHEALHNHYTQKSLSLSPGK
light: QSALTQPASVSGSPGQSITISCTGTSSDVYYYNYVSWYQQHPGRAPKLVIYDVSNRPSGVSNRFSGSKSGNTASLTISGLRAEDEADYYCSSYTVNRVWVFGGGTKLTVLGQPKAAPSVTLFPPSSEELQANKATLVCLISDFYPGAVTVAWKADSSPVKAGVETTTPSKQSNNKYAASSYLSLTPEQWKSHRSYSCQVTHEGSTVEKTVAPTECS
Broadly, the EC50 (read off the curve) is the concentration that produces a half-maximal response. As to B1, the “EC50 (read off the curve)” value in assay [1] is roughly 0.04 µg/mL; in assay [2], roughly 0.1 µg/mL; in assay [3], roughly 0.04 µg/mL; in assay [4], roughly 0.06 µg/mL.

B2: IgG1-CD27-A (wild-type IgG1 Fc) (antibody)
heavy: not shown
light: QSALTQPASVSGSPGQSITISCTGTSSDVYYYNYVSWYQQHPGRAPKLVIYDVSNRPSGVSNRFSGSKSGNTASLTISGLRAEDEADYYCSSYTVNRVWVFGGGTKLTVLGQPKAAPSVTLFPPSSEELQANKATLVCLISDFYPGAVTVAWKADSSPVKAGVETTTPSKQSNNKYAASSYLSLTPEQWKSHRSYSCQVTHEGSTVEKTVAPTECS
notes: also called WT IgG1-CD27-A; IgG-CD27-A
In the case of B2, the binding result in assay [5] is recorded as “no binding (tested: 15 µg/mL)”.

B3: IgG1-CD27-A-E430G (antibody)
heavy: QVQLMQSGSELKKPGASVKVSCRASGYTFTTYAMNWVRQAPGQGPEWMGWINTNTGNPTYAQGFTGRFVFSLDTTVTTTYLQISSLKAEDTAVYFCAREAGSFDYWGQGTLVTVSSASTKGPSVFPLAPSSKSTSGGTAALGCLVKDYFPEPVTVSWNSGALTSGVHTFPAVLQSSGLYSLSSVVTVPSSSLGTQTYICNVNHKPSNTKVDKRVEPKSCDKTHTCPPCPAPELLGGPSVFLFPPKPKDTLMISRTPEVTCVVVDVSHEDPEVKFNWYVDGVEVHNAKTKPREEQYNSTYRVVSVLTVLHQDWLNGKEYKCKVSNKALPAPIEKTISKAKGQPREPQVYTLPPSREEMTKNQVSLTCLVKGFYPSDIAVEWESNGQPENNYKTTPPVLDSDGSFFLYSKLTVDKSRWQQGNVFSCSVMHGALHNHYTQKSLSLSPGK
light: QSALTQPASVSGSPGQSITISCTGTSSDVYYYNYVSWYQQHPGRAPKLVIYDVSNRPSGVSNRFSGSKSGNTASLTISGLRAEDEADYYCSSYTVNRVWVFGGGTKLTVLGQPKAAPSVTLFPPSSEELQANKATLVCLISDFYPGAVTVAWKADSSPVKAGVETTTPSKQSNNKYAASSYLSLTPEQWKSHRSYSCQVTHEGSTVEKTVAPTECS
Consider B3, for which the 50% effective concentration (EC50 (read off the curve)) in assay [5] was roughly 0.03 µg/mL.

B4: IgG1-CD27-A-E345R (antibody)
heavy: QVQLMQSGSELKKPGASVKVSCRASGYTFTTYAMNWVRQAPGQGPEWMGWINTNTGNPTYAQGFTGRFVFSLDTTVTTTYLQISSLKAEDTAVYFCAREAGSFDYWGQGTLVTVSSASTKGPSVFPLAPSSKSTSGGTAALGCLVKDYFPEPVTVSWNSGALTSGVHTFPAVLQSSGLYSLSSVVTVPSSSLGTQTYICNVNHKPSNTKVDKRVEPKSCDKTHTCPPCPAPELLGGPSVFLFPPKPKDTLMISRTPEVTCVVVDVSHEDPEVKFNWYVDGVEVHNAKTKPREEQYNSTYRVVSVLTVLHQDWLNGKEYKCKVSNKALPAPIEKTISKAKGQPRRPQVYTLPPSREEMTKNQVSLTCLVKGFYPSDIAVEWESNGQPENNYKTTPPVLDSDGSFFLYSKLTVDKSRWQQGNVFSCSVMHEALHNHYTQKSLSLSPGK
light: QSALTQPASVSGSPGQSITISCTGTSSDVYYYNYVSWYQQHPGRAPKLVIYDVSNRPSGVSNRFSGSKSGNTASLTISGLRAEDEADYYCSSYTVNRVWVFGGGTKLTVLGQPKAAPSVTLFPPSSEELQANKATLVCLISDFYPGAVTVAWKADSSPVKAGVETTTPSKQSNNKYAASSYLSLTPEQWKSHRSYSCQVTHEGSTVEKTVAPTECS
notes: also called IgG-CD27-A-E345R
Turning to B4, in assay [5], the binding result is reported as “binds”.
